Laboratory results: article PMC6800183 (Journal of biological inorganic chemistry : JBIC : a …, 2019)

B1: Aft2(1–204) C187A (domain or fragment, S. cerevisiae, UniProt Q08957 1-204, looked up)
chain: MKAKSMKSIISVPISVSKTGKMKLTASPDNLASMMSKDQNKLIHLDPVPSFEDRHEIKPWLQKIFYPQGIDIVIERSDSSKVTFKCRSVRSKVGLNPKSKGSSSRSHACPFRIRAAYSVRLQKWNVVVMNNIHSHELRFDLITKTDDYKKFKENLRQKNDEKAIKTFDELEYKASLNLPLVTPIISADCGLTKEIEAFNNIFLP
B2: Aft2(1–204) C189A (domain or fragment, S. cerevisiae, UniProt Q08957 1-204, looked up)
chain: MKAKSMKSIISVPISVSKTGKMKLTASPDNLASMMSKDQNKLIHLDPVPSFEDRHEIKPWLQKIFYPQGIDIVIERSDSSKVTFKCRSVRSKVGLNPKSKGSSSRSHACPFRIRAAYSVRLQKWNVVVMNNIHSHELRFDLITKTDDYKKFKENLRQKNDEKAIKTFDELEYKASLNLPLVTPIISCDAGLTKEIEAFNNIFLP
B3: Bol2 (natural protein, S. cerevisiae, UniProt P53082 1-120, looked up)
chain: MTGERIEKVKINDEFAKSHFLTTQWRETKRQRHYKMPVTEQGLRERIESAIPQVYHIIVTDLSYGCGQSFDIVVVSDFFQGKSKLMRSRAVNKAVKEELQEIHAFSCKCYTEEEWSKIVV

Tests used:
[1] = target: T1, [2Fe-2S]-Grx3-Bol2 heterodimer (Saccharomyces cerevisiae, UniProt P53082+Q03835); test: Bradford, iron and acid-labile sulfide analysis; format: binding; details: cluster bridges Grx3 and Bol2; pH 8.0, 1 mM GSH, anaerobic
T1 sequence (Q03835 1-250): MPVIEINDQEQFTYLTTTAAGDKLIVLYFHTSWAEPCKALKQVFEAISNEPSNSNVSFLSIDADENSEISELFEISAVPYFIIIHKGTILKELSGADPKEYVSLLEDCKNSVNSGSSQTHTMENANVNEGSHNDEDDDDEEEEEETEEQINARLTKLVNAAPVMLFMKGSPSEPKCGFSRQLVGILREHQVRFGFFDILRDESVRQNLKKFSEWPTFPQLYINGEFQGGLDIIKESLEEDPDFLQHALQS
T1 sequence (P53082 1-120): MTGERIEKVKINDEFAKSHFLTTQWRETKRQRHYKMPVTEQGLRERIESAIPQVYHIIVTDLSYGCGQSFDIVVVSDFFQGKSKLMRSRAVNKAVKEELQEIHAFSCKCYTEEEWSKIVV

[2] = target: T2, [2Fe-2S]-Grx3-Bol2 heterodimer (S. cerevisiae, UniProt Q03835 1-250; P53082 1-120); test: heparin chromatography co-elution
T2 sequence (looked up) 1: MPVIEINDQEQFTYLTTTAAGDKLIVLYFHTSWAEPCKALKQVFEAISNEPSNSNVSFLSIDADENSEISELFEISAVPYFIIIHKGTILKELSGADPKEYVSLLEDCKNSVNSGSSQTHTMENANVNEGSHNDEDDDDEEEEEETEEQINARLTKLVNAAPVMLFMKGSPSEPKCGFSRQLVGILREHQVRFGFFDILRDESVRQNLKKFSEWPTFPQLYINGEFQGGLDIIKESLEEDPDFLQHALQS
T2 sequence (looked up) 2: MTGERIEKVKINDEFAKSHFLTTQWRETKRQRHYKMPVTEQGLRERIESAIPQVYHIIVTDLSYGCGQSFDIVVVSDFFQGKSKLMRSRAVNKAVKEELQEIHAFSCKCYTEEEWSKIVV

Grx3 = target: T3, Grx3 (S. cerevisiae, UniProt Q03835 1-250); test: SEC
T3 sequence (looked up): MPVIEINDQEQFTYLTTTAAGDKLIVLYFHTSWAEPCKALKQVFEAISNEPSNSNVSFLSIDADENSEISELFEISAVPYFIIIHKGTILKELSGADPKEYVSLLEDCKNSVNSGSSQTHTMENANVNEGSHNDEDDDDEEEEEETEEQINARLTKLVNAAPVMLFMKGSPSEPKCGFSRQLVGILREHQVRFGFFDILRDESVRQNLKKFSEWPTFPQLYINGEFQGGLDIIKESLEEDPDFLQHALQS

Molecule | binding result [2] | other results
[2Fe-2S] cluster | – | [2Fe-2S] cluster per heterodimer [1]: 0.9–1.05 per heterodimer
B1 | binds | –
B2 | binds | –
B3 | – | binding result (Grx3): binds
